Test results: patent US20210230266A1 (SINGAPORE HEALTH SERVICES PTE, published 2021)
One block for each binder: values may come before it.

Key:
Human IL-11 [1] = biological target: T1, Human IL-11 (human, UniProt P20809 22-199); assay: cell-based or functional assay
T1 sequence: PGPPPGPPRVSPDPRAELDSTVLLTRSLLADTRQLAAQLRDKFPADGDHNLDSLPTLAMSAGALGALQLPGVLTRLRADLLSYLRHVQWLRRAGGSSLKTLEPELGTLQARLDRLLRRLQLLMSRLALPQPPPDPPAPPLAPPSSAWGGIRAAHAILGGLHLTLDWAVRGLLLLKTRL

Human IL-11 [2] = biological target: T1, Human IL-11; assay: ELISA
Protocol: (§1) The soluble scFv were produced by recombinant expression in E. coli, and analysed for their ability to bind to human IL-11 and murine IL-11 by ELISA. Briefly, the respective antigen was coated to wells of an ELISA plate, the cell culture supernatant containing the respective scFv was added at a 1:2 dilution, and binding was detected.

Mouse IL-11 = biological target: T2, Mouse IL-11 (mouse, UniProt P47873 22-199, limits assumed); assay: ELISA
T2 construct: also called murine IL-11; recombinant murine IL-11
T2 sequence (looked up): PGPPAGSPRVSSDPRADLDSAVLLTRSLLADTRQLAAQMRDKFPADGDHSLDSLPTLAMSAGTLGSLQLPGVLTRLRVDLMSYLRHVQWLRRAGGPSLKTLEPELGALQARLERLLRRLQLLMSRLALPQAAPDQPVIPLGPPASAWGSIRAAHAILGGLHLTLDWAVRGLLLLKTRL
Protocol: as §1

Human IL-11 [3] = biological target: T1, Human IL-11; assay: ELISA on coated recombinant human IL-11 (100 ng/well), scFv-Fc
Protocol: The light chain shuffled anti-IL-11 antibodies were analysed to determine the EC50 for binding to human IL-11 by ELISA according to standard methods. Briefly, wells of microtiter plates were coated with recombinant human IL-11 (100 ng/well), scFv-Fc comprising the VH and VL domains of the clones were added in a dilution series and antibody binding was detected using a polyclonal antibody detection system.

MMP2 production, Experiment 1 (human atrial fibroblasts + TGFB1) (Human IL-11 [1]): 50.3 ng/mL | MMP2 production, Experiment 2 (human atrial fibroblasts + TGFB1) (Human IL-11 [1]): 42.5 ng/mL | hIL11 - average signal (Human IL-11 [2]): 0.418 | mIL11 - average signal (Mouse IL-11): 0.723 | EC50 (Human IL-11 [3]): 0.018 µg/mL
B7: YU112-D08 (antibody)
chain: QVQLVESGGGVVQPGRSLRLSCAASGFTFSSYGMHWVRQAPGKGLEWVAVISYDGSNKYYADSVEGRFTISRDNSKNTLYLQMNSLRAEDTAVYYCAKIGATDPLDYWGQGTLVTVSSGSASAPKLEEGEFSEARVQSALTQPRSVSGSPGQSVTISCTGTISDVGGYNYVSWYQQHPGKAPKLMIYDVTKRPSGVPDRFSGSKSGNTASLTISGLQAEDEAGYYCSSYAGSYTWVFGGGTELTVL

MMP2 production, Experiment 1 (human atrial fibroblasts + TGFB1) (Human IL-11 [1]): 50.7 ng/mL | MMP2 production, Experiment 2 (human atrial fibroblasts + TGFB1) (Human IL-11 [1]): 45 ng/mL | hIL11 - average signal (Human IL-11 [2]): 0.438 | mIL11 - average signal (Mouse IL-11): 0.612 | EC50 (Human IL-11 [3]): 0.025 µg/mL
B8: YU112-A07 (antibody)
chain: QVQLVESGGGVVQPGRSLRLSCAASGFTFSSYGMHWVRQAPGKGLEWVAVISYDGSNKYYTDSVKGRFTISRDNSKNTLYLQMNSLRAEDTAVYYCAKIGATDPLDYWGQGTLVTVSSGSASAPKLEEGEFSEARVQSALTQPRSVSGSPGQSVTISCTGTISDVGGYNYVSWYQQHPGKAPKLMIYDVTKRPSGVPDRFSGSKSGNTASLTISGLQAEDEAGYYCSSYAGSYTWVFGGGTELTVL

MMP2 production, Experiment 1 (human atrial fibroblasts + TGFB1) (Human IL-11 [1]): 55.2 ng/mL | MMP2 production, Experiment 2 (human atrial fibroblasts + TGFB1) (Human IL-11 [1]): 50.1 ng/mL | hIL11 - average signal (Human IL-11 [2]): 0.458 | mIL11 - average signal (Mouse IL-11): 0.685 | EC50 (Human IL-11 [3]): 0.012 µg/mL
B9: YU112-C05 (antibody)
chain: EVQLVESGGGVVQPGRSLRLSCAASGFTFSSYAMHWVRQAPGKGLEWVAVISYDGSNKYYADSVKGRFTISRDNSKNTLYLQMNSLRAEDTAVYYCARIMGYDYGDYDVVDYWGQGTLVTVSSGSASAPKLEEGEFSEARVQSALTQPRSVSGSPGQSVTISCTGTISDVGGYNYVSWYQQHPGKAPKLMIYDVTKRPSGVPDRFSGSKSGNTASLTISGLQAEDEAGYYCSSYAGSYTWVFGGGTELTVL

MMP2 production, Experiment 1 (human atrial fibroblasts + TGFB1) (Human IL-11 [1]): 57.6 ng/mL | MMP2 production, Experiment 2 (human atrial fibroblasts + TGFB1) (Human IL-11 [1]): 53.3 ng/mL | hIL11 - average signal (Human IL-11 [2]): 0.566 | mIL11 - average signal (Mouse IL-11): 0.445 | EC50 (Human IL-11 [3]): 0.017 µg/mL
B10: YU112-C03 (antibody)
chain: QVQLVESGGGVVQPGRSLRLSCAASGFTFSSYGMHWVRQAPGKGLEWVAVISYDGSNKYYADSVKGRFTISRDNSKNTLYLQMNSLRAEDTAVYYCAKGGKSYYGFDYWGQGTLVTVSSGSASAPKLEEGEFSEARVDSVMTQSPSSLSASVGDRVTITCRASQAINSYLNWYQQKPGKAPKLLIYAASSLQSGVPSRFSGSGSGTDFTLTISGLQPEDFATYYCQQSYSTPSWTFGQGTKVEIK

MMP2 production, Experiment 1 (human atrial fibroblasts + TGFB1) (Human IL-11 [1]): 53.9 ng/mL | MMP2 production, Experiment 2 (human atrial fibroblasts + TGFB1) (Human IL-11 [1]): 48.5 ng/mL | hIL11 - average signal (Human IL-11 [2]): 0.863 | mIL11 - average signal (Mouse IL-11): 0.601 | EC50 (Human IL-11 [3]): 0.04 µg/mL
B11: YU112-F05 (antibody)
chain: EVQLVQSGGGVVQPGRSLRLSCAASGFTFGSYGMHWVRQAPGKGLEWVAVISYDGSNKYYADSVKGRFTISRDNSKNTLYLQMNSLRAEDTAVYYCAKIGATDPLDYWGQGTLVTVSSGSASAPKLEEGEFSEARVQSALTQPRSVSGSPGQSVTISCTGTSSDVGGYNYVSWYQQHPGKAPKLIIYDVNNRPSGVSNRFSASKSGNTASLTISGLQAEDEADYYCNSYTSGSTWVFGGGTKLTVL

MMP2 production, Experiment 1 (human atrial fibroblasts + TGFB1) (Human IL-11 [1]): 49.7 ng/mL | MMP2 production, Experiment 2 (human atrial fibroblasts + TGFB1) (Human IL-11 [1]): 43.9 ng/mL | hIL11 - average signal (Human IL-11 [2]): 0.756 | mIL11 - average signal (Mouse IL-11): 0.622 | EC50 (Human IL-11 [3]): 0.02 µg/mL
B13: YU112-B06 (antibody)
chain: QVQLVESGGGVVQPGRSLRLSCAASGFTFSSYGMHWVRQAPGKGLEWVAVISYDGSNKYYADSVKGRFTISRDNSKNTLYLQMNSLRAEDTAVYYCAKIGATDPLDYWGQGTLVTVSSGSASAPKLEEGEFSEARVQSALTQPASVSGSPGQSITISCTGTSSDVGGYNYVSWYQQHPGKAPKLMIYDVSNRPSGVSNRFSGSKSGNTASLTIFGLQAEDEADYYCSSYTSSSSWVFGGGTKLTVL

More lines, now with the values behind:

B1: YU100-H05 (antibody)
chain: QVQLVESGGGVVQPGRSLRLSCAASGFTFSSYGMHWVRQAPGKGLEWVAVISYDGSNKYYADSVKGRFTISRDNSKNTLYLQMNSLRAEDTAVYYCAKIGATDPLDYWGQGTLVTVSSGSASAPKLEEGEFSEARVQAVLTQPRSVSGSPGQSITISCTGTGSNVGGYNYVSWYQQHPGQAPKLMIYDVSKRPSGVPDRFSGSKSGNTASLTISGLQAEDEADYYCCSYAGTYTWVFGGGTKLTVL
MMP2 production, Experiment 1 (human atrial fibroblasts + TGFB1) (Human IL-11 [1]): 57.1 ng/mL | MMP2 production, Experiment 2 (human atrial fibroblasts + TGFB1) (Human IL-11 [1]): 47.8 ng/mL | hIL11 - average signal (Human IL-11 [2]): 0.163 | mIL11 - average signal (Mouse IL-11): 0.461 | EC50 (Human IL-11 [3]): 0.022 µg/mL

B2: YU100-H02 (antibody)
chain: QVQLQQSGGGVVQPGRSLRLSCAASGFTFSSYGMHWVRQAPGKGLEWVAVISYDGSNKYYADSVKGRFTISRDNSKNTLYLQMNSLRAEDTAVYYCARIMGYDYGDYDVVDYWGQGTLVTVSSGSASAPKLEEGEFSEARVQSALTQPRSVSRSPGQSVTISCTGTSSDVGTYNYVSWYQQHPGKAPKLMIYDVSKRPSGVPDRFSGSKSGNTASLTISGLQAEDEADYYCCSYAGFYTWVFGGGTKLTVL
MMP2 production, Experiment 1 (human atrial fibroblasts + TGFB1) (Human IL-11 [1]): 57.5 ng/mL | MMP2 production, Experiment 2 (human atrial fibroblasts + TGFB1) (Human IL-11 [1]): 51.3 ng/mL | hIL11 - average signal (Human IL-11 [2]): 0.309 | mIL11 - average signal (Mouse IL-11): 0.188 | EC50 (Human IL-11 [3]): 0.032 µg/mL

B3: YU100-H04 (antibody)
chain: QVQLVESGGGVVQPGRSLRLSCAASGFTFSSYAMHWVRQAPGKGLEWVAVISYDGSNKYYADSVKGRFTISRDNSKNTLYLQMNSLRAEDTAVYYCARIMGYDYGDYDVVDYWGQGTLVTVSSGSASAPKLEEGEFSEARVQSALTQPASVSGSPGQSITISCTGTSSDIGVYNYVSWYQQHPGKAPKLMIYDVSKRPSGVPDRFSGSKSGNTASLTISGLQAEDEADYYCCSYAGSYTWVFGGGTKLTVL
MMP2 production, Experiment 1 (human atrial fibroblasts + TGFB1) (Human IL-11 [1]): 58.5 ng/mL | MMP2 production, Experiment 2 (human atrial fibroblasts + TGFB1) (Human IL-11 [1]): 48.7 ng/mL | hIL11 - average signal (Human IL-11 [2]): 0.508 | mIL11 - average signal (Mouse IL-11): 0.393 | EC50 (Human IL-11 [3]): 0.027 µg/mL

B4: YU100-H09 (antibody)
chain: QVQLVQSGGGVVQPGRSLRLSCAASGFTFSSYAMHWVRQAPGKGLEWVAVISYDGSNKYYADSVKGRFTISRDNSKNTLYLQMNSLRAEDTAVYYCARIMGYDYGDYDVVDYWGQGTLVTVSSGSASAPKLEEGEFSEARVQSALTQPASVSGSPGQSITISCTGTSSDVGGYNYVSWYQQHPGKAPKLMIYDVSNRPSGVSNRFSGSKSGNTASLTISGLQAEDEADYYCCSYAGSYTWVFGGGTKLTVL
MMP2 production, Experiment 1 (human atrial fibroblasts + TGFB1) (Human IL-11 [1]): 52.9 ng/mL | MMP2 production, Experiment 2 (human atrial fibroblasts + TGFB1) (Human IL-11 [1]): 39.6 ng/mL | hIL11 - average signal (Human IL-11 [2]): 0.4 | mIL11 - average signal (Mouse IL-11): 0.668 | EC50 (Human IL-11 [3]): 0.028 µg/mL

B5: YU100-G09 (antibody)
chain: EVQLVESGGGVVQPGRSLRLSCAASGFTFSSYGMHWVRQAPGKGLEWVAVISYDGSNKYYADSVKGRFTISRDNSKNTLYLQMNSLRAEDTAVYYCAKIGATDPLDYWGQGTLVTVSSGSASAPKLEEGEFSEARVQSALTQPRSVSGSPGQSVTISCTGTISDVGGYNYVSWYQQHPGKAPKLMIYDVTKRPSGVPDRFSGSKSGNTASLTISGLQAEDEAGYYCSSYAGSYTWVFGGGTKLTVL
MMP2 production, Experiment 1 (human atrial fibroblasts + TGFB1) (Human IL-11 [1]): 59.9 ng/mL | MMP2 production, Experiment 2 (human atrial fibroblasts + TGFB1) (Human IL-11 [1]): 47.5 ng/mL | hIL11 - average signal (Human IL-11 [2]): 0.802 | mIL11 - average signal (Mouse IL-11): 0.985 | EC50 (Human IL-11 [3]): 0.014 µg/mL

B6: YU100-H06 (antibody)
chain: QVQLVESGGGVVQPGRSLRLSCAASGFTFSSYGMHWVRQAPGKGLEWVAVISYDGSNKYYADSVKGRFTISRDNSKNTLYLQMNSLRAEDTAVYYCAKIGATDPLDYWGQGTLVTVSSGSASAPKLEEGEFSEARIQSALTQPRSVSGSPGQSVTISCTGTSSDVGGYNYVSWYQQHPGKAPKLMIYDVTKRPSGVPDRFSGSKSGNTASLTISGLQAEDEADYYCSSYAGSYTWVFGGGTKLTVL
MMP2 production, Experiment 1 (human atrial fibroblasts + TGFB1) (Human IL-11 [1]): 52.3 ng/mL | MMP2 production, Experiment 2 (human atrial fibroblasts + TGFB1) (Human IL-11 [1]): 43.9 ng/mL | hIL11 - average signal (Human IL-11 [2]): 0.181 | mIL11 - average signal (Mouse IL-11): 0.328 | EC50 (Human IL-11 [3]): 0.013 µg/mL

B12: YU100-H11 (antibody)
chain: QVQLVQSGGGVVQPGRSLRLSCAASGFTFSSYGMHWVRQAPGKGLEWVAVISYDGSNKYYADSVKGRFTISRDNSKNTLYLQMNSLRAEDTAVYYCAKIGATDPLDYWGQGTLVTVSSGSASAPKLEEGEFSEARVQSALTQPASVSGSPGQSITISCTGTSSDVGGYNYVSWYQQHPGKAPKLMIYDVSNRPSGVSNRFSGSKSGNTASLTISGLQAEDEADYYCCSYAGSYTWVFGGGTKLTVL
MMP2 production, Experiment 1 (human atrial fibroblasts + TGFB1) (Human IL-11 [1]): 53.7 ng/mL | MMP2 production, Experiment 2 (human atrial fibroblasts + TGFB1) (Human IL-11 [1]): 45.5 ng/mL | hIL11 - average signal (Human IL-11 [2]): 0.724 | mIL11 - average signal (Mouse IL-11): 0.629 | EC50 (Human IL-11 [3]): 0.015 µg/mL
